Reference: patent US20230313190

Molecular target: T1, Flag-Atxn1-82Q-HA, P54253
T1 chain: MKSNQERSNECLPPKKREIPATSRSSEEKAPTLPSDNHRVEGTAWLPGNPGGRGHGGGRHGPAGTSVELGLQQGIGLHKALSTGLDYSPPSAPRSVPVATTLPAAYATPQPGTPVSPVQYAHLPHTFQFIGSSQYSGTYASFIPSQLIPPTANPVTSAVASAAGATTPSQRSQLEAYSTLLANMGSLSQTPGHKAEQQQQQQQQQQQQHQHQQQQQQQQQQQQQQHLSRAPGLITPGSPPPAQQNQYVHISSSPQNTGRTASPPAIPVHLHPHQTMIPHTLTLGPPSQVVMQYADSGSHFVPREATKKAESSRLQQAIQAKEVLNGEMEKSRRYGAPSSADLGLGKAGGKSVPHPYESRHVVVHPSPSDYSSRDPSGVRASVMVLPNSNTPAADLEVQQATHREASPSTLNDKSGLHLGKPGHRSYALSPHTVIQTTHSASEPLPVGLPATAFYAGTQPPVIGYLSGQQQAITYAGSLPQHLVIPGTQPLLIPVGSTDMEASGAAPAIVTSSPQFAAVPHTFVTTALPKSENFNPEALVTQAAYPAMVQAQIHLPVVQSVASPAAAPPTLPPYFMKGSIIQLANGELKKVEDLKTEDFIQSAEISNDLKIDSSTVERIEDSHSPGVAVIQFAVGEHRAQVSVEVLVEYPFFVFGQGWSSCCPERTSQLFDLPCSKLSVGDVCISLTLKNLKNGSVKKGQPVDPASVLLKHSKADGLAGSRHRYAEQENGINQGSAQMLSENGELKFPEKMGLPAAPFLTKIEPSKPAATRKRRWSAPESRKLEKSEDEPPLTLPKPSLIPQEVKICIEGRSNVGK

B1: GST-rRNF4 (protein)
chain: MSTRNPQRKRRGGAVNSRQTQKRTRETTSTPEISLEAEPIELVETVGDEIVDLTCESLEPVVVDLTHNDSVVIVEERRRPRRNGRRLRQDHADSCVVSSDDEELSKDKDVYVTTHTPRSTKDEGTTGLRPSGTVSCPICMDGYSEIVQNGRLIVSTECGHVFCSQCLRDSLKNANTCPTCRKKINHKRYHPIYI
  in vitro ubiquitination assay: the unmodified Atxn1 82Q protein was not ubiquitinated
